From patent US20230047413A1 (Janssen / Centocor, published 2023)
Where “and” joins values, the source holds several entries; their conditions need not be identical. Identical values can stand only once.

How the values were obtained:
Peptide-5 = Peptide-5 (human, phosphoserine 210, phosphoserine 214, phosphothreonine 217 (tau 2N4R numbering); SCBiot and dPEG4 at the N-terminus; amide at the C-terminus); assay: SPR ProteOn, peptide captured, Fab as analyte; Peptide-5, phosphorylated at 210/214/217
Peptide-5 (human, phosphoserine 210, phosphoserine 214, phosphothreonine 217 (tau 2N4R numbering); SCBiot and dPEG4 at the N-terminus; amide at the C-terminus), sequence (peptide, as listed by the source): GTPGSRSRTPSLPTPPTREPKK
Procedure: (§1) The binding affinity of PT3 Fab towards each of the fourteen tau phosphopeptides shown in Table 6 was assessed by surface plasmon resonance (SPR) using a Bio-Rad ProteOn XPR36. Peptides were synthesized by standard chemical methods (New England Peptide) with short-chain biotin and a PEG4 moiety at the N-terminus. Biotinylated peptide was captured on a neutravidin-coated NLC biosensor chip and PT3 Fab was flowed over the surface to measure kinetic parameters.
(§2) All experiments were performed at 25° C. using phosphate buffered saline, pH 7.4, 0.005% Tween 20 (PBST) as both running buffer and sample dilution buffer. Prior to running samples, the NLC chip was conditioned by running PBST over the chip surface for 1 h. Approximately 5-10 RU of peptide was captured on the chip surface by diluting peptide to 10 ng/mL in PBST and injecting over the flow channels at 30 μL/min for 100 s. Serial dilutions of PT3 Fab (1.1-90 nM) were analyzed and, with the exception of Peptide-8, each concentration was measured in duplicate. After capture of peptides, the antibody titration was injected at 60 μL/min for 3 minutes (association phase), followed by 300 s of buffer only (dissociation phase).
(§3) The data were double referenced by subtraction of the interspot response and the curves generated by the buffer-only injection. […] The data were analyzed using a simple Langmuir 1:1 binding model.

Peptide-2 [1] = molecular target: T1, Peptide-2 (human, phosphothreonine 212, phosphothreonine 217 (tau 2N4R numbering); short chain biotin (SCBiot) and dPEG4 at the N-terminus; amide at the C-terminus); assay: SPR ProteOn, peptide captured, Fab as analyte
T1 construct: also called pT212/pT217-tau peptide (Peptide-2)
Procedure: (§4) A subset of HFA-PT3 monoclonal antibody variants, selected based on biophysical characterization and ELISA binding to PHF, were analyzed by Surface Plasmon Resonance (SPR) with a ProteOn XPR36 for binding to the following phosphopeptides: pT212/pT217-tau peptide (Peptide-2, SEQ ID NO: 48) and pT212-tau peptide (Peptide-8, SEQ ID NO: 54). All experiments were performed at 25° C. using PBST, pH 7.4, (Bio-Rad Cat#176-2720) as both running buffer and sample dilution buffer.
(§5) Fab/peptide binding. Biotinylated peptide was captured on a neutravidin-coated NLC biosensor chip pre-conditioned with PBST, and Fab was flowed over the surface to measure kinetic parameters. Approximately 5-10 RU of peptide was captured on the chip surface by diluting peptide to 10 ng/mL in PBST and injecting over the flow channels at 30 μL/min for 100 s. Serial dilutions of PT3 Fab (1.1 nM to 90 nM) were injected at 60 μL/min for 3 minutes (association phase), followed by 300 s of buffer only (dissociation phase).
(§6) Data were double referenced by subtraction of the interspot response, and the curves generated by the buffer only injection. The chip surface was regenerated with 0.85% phosphoric acid, followed by PBST injection before the next antibody titration injection. Data processing and analysis were performed using instrument software. The data were fit using a simple Langmuir 1:1 binding model.

Peptide-1 = molecular target: T2, Peptide-1 (human, phosphothreonine 212, phosphoserine 214, phosphothreonine 217 (tau 2N4R numbering); short chain biotin (SCBiot) and dPEG4 at the N-terminus; amide at the C-terminus); assay: SPR ProteOn, peptide captured, Fab as analyte; range of n=2; Peptide-1 (pT212/pS214/pT217); lower end of n=2 range
T2 construct: also called tau peptide phosphorylated at T212/S214/T217
Procedure: as §1, §2, §3

Peptide-6 = Peptide-6 (human, phosphothreonine 217 (tau 2N4R numbering); SCBiot and dPEG4 at the N-terminus; amide at the C-terminus); assay: SPR ProteOn, peptide captured, Fab as analyte; Peptide-6, phosphorylated at 217 only
Procedure: as §1, §2, §3

Peptide-2 [2] = molecular target: T1, Peptide-2; assay: SPR ProteOn, peptide captured, Fab as analyte; range of n=2; Peptide-2 (pT212/pT217); Table 12 run; upper end of n=2 range
Procedure: as §4, §5, §6

Peptide-8 = molecular target: T3, Peptide-8 (human, phosphothreonine 212 (tau 2N4R numbering); SCBiot and dPEG4 at the N-terminus; amide at the C-terminus); assay: SPR ProteOn, peptide captured, Fab as analyte; n=1
T3 construct: also called pT212-tau peptide (Peptide-8)
Procedure: as §1, §2
The data were double referenced by subtraction of the interspot response and the curves generated by the buffer-only injection. The chip surface was regenerated using a single injection of 0.85% phosphoric acid at 30 μL/min for 100 s contact time, followed by four injections of running buffer before the next antibody titration injection. The data processing and kinetic analysis were done using the instrument software. The data were analyzed using a simple Langmuir 1:1 binding model.

Peptide-7 [3] = molecular target: T4, Peptide-7 (human, phosphothreonine 212, phosphoserine 214 (tau 2N4R numbering); SCBiot and dPEG4 at the N-terminus; amide at the C-terminus); assay: SPR ProteOn, peptide captured, Fab as analyte; range of n=2; Peptide-7 (pT212/pS214); upper end of n=2 range
Procedure: as §1, §2, §3

Peptide-2 [4] = molecular target: T1, Peptide-2; assay: SPR ProteOn, peptide captured, Fab as analyte; range of n=2; Peptide-2 (pT212/pT217); Table 12 run; lower end of n=2 range
Procedure: as §4, §5, §6

Peptide-2 [5] = molecular target: T1, Peptide-2; assay: SPR ProteOn, peptide captured, Fab as analyte; range of n=2
Procedure: as §4, §5, §6

Peptide-7 [6] = molecular target: T4, Peptide-7; assay: SPR ProteOn, peptide captured, Fab as analyte; Peptide-7, phosphorylated at 212/214
Procedure: as §1, §2, §3

Peptide-4 = Peptide-4 (human, phosphoserine 210, phosphothreonine 217 (tau 2N4R numbering); SCBiot and dPEG4 at the N-terminus; amide at the C-terminus); assay: SPR ProteOn, peptide captured, Fab as analyte; Peptide-4, phosphorylated at 210/217
Procedure: as §1, §2, §3

B1: PT3 Fab (B187) (Fab, V domains shown)
VH: EVKLVESGGDLVKPGGSLKLSCAASGFTFSSYAMSWVRQNPEKRLEWVASISKGGNTYYPNSVKGRFTISRDNARNILYLQMSSLRSEDTALYYCARGWGDYGWFAYWGQVTLVTVSA
VL: DIKMTQSPSSMYASLGERVTITCKASQDINRYLNWFQQKPGKSPKTLIYRANRLLDGVPSRFSGSGSGQDYSLTISSLDYEDMGIYYCLQYDEFPLTFGDGTKLELK
notes: Chimeric Fab: mouse variable regions, human IgG1/kappa constant region, 6xHis tag at the C-terminus of the heavy chain; also called mouse parental Fab of PT3
Question: For B1, which Kd (Peptide-5) is on record?
Answer: Its Kd is 8.7 nM.

Question: What about the koff (Peptide-2 [1]) of the same binder?
Answer: Its koff is 6.39e-05 s⁻¹.

Question: What about the kon (Peptide-2 [1]) of the same binder?
Answer: The kon was 776000 M⁻¹ s⁻¹.

Question: And the Kd (Peptide-1)?
Answer: The Kd was 0.14 to 0.38 nM.

Question: And the Kd (Peptide-6)?
Answer: The Kd was 11.4 nM.

Question: And the Kd (Peptide-2 [2])?
Answer: The Kd was 0.0738 to 0.101 nM.

Question: What about the Kd (Peptide-8) of the same binder?
Answer: The Kd was 23 nM.

Question: What about the koff (Peptide-8) of the same binder?
Answer: Its koff is 0.00646 s⁻¹.

Question: What about the kon (Peptide-8) of the same binder?
Answer: Its kon is 281000 M⁻¹ s⁻¹.

Question: What about the Kd (Peptide-7 [3]) of the same binder?
Answer: Its Kd is 11.3 to 15.7 nM.

Question: What about the Kd (Peptide-2 [4]) of the same binder?
Answer: Its Kd is 0.0738 to 0.101 nM.

Question: And the koff (Peptide-2 [5])?
Answer: The koff was 4.93e-05 s⁻¹ and 7.84e-05 s⁻¹.

Question: And the kon (Peptide-2 [5])?
Answer: The kon was 491000 M⁻¹ s⁻¹ and 1.06e+06 M⁻¹ s⁻¹.

Question: And the Kd (Peptide-7 [6])?
Answer: Its Kd is 13.5 nM.

Question: What about the Kd (Peptide-4) of the same binder?
Answer: The Kd was 6.6 nM.
